These results are taken from patent publication US20230190752A1 (WASHINGTON UNIVERSITY, published 2023).

For this assay, the target named is T1, Valosin-Containing Protein phosphorylated at Ser784 (pSer^784-VCP), endogenous, from genotoxin-treated human … (human, UniProt P55072 2-806, phosphoserine at 784).
T1 construct: Endogenous protein in lysates or fixed cells (HeLa, MDA-MB-231, U2OS and others) after SN38, etoposide or HU; it is tied to the assayed protein only through that definition; also called DNA-damage-induced ~100-kDa protein
T1 sequence (P55072 2-806 limits assumed): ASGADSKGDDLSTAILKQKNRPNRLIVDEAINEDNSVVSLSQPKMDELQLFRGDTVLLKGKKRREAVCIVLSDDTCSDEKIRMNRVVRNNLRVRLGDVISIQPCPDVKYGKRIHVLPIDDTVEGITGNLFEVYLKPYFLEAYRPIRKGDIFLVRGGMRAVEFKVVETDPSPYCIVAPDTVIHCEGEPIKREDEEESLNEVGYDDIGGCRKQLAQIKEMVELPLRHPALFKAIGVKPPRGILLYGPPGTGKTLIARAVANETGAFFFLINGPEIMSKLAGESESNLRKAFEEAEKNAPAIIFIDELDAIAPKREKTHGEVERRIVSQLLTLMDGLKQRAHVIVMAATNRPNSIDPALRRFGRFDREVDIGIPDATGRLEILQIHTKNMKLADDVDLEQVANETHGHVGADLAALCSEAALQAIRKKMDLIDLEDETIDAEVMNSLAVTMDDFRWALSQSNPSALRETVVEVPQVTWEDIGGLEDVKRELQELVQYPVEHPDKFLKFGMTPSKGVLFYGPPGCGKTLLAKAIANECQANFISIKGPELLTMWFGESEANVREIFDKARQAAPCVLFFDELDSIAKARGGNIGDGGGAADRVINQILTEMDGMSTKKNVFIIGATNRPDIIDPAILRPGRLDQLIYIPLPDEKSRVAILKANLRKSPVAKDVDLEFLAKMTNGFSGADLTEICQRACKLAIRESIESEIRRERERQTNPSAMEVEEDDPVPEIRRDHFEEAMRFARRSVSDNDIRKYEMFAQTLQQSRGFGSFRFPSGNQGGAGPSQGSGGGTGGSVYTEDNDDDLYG
The assay is described as follows: co-IP, western blot (FIG. 15B, 14B). As to the method: Antibody-bound proteins were analyzed by Western blot for K48-ubiquitin, total VCP and pSer784-VCP. Same amount of control IgG was used to bind the etoposide-treated HeLa samples to control for non-specific binding. […] Samples were analyzed by Western blot for K48-ubiquitin, NPL4, and UFD1. Total VCP bound by the antibodies were visualized by silver staining. […] YFP-FLAG was expressed as a control.
Ser784 Phosphorylation Decreases VCP Association with NPL4/UFD1 and Polyubiquitinated Proteins: To study the regulatory mechanism of Ser784 phosphorylation, the effects on the VCP interaction with protein substrates were first examined. Total VCP (by a pan-VCP antibody) or pSer784-VCP (by 3E4) from etoposide or HU-treated HeLa cell lysates were immunoprecipitated and immunoblotted for co-absorbed K48-polyubiquitinated proteins. […] To better separate pSer784-VCP from unphosphorylated VCP, sequential pull-downs were performed from etoposide-treated HeLa cell lysates to first deplete pSer784-VCP using 3E4 and subsequently capture the remaining unphosphorylated VCP by the pan-antibody. […] Based on the levels of VCP in the input and supernatants after each pull-down, it is evident that Ser784 is phosphorylated at high stoichiometry in response to DNA damage (>50% of total VCP after overnight etoposide treatment) (FIG. 15A).

B1: NPL4 (other, UniProt Q8TAT6 2-608, looked up)
chain: AESIIIRVQSPDGVKRITATKRETAATFLKKVAKEFGFQNNGFSVYINRNKTGEITASSNKSLNLLKIKHGDLLFLFPSSLAGPSSEMETSVPPGFKVFGAPNVVEDEIDQYLSKQDGKIYRSRDPQLCRHGPLGKCVHCVPLEPFDEDYLNHLEPPVKHMSFHAYIRKLTGGADKGKFVALENISCKIKSGCEGHLPWPNGICTKCQPSAITLNRQKYRHVDNIMFENHTVADRFLDFWRKTGNQHFGYLYGRYTEHKDIPLGIRAEVAAIYEPPQIGTQNSLELLEDPKAEVVDEIAAKLGLRKVGWIFTDLVSEDTRKGTVRYSRNKDTYFLSSEECITAGDFQNKHPNMCRLSPDGHFGSKFVTAVATGGPDNQVHFEGYQVSNQCMALVRDECLLPCKDAPELGYAKESSSEQYVPDVFYKDVDKFGNEITQLARPLPVEYLIIDITTTFPKDPVYTFSISQNPFPIENRDVLGETQDFHSLATYLSQNTSSVFLDTISDFHLLLFLVTNEVMPLQDSISLLLEAVRTRNEELAQTWKRSEQWATIEQLCSTVGGQLPGLHEYGAVGGSTHTATAAMWACQHCTFMNQPGTGHCEMCSLPRT
notes: Detected by western blot in VCP co-immunoprecipitates; also called cofactor NPL4
Consider B1, for which the binding result is on record as “binds”.
